This note sets out measurements from patent US20190300590A1 (PROTAGONIST THERAPEUTICS, published 2019).

Bridges are numbered along the chain shown (N, C = ends). [ ]: non-standard residue; d: D form. Phe(3,4-(OMe)2) = COc1ccc(C[C@H](N)C(=O)O)cc1OC; Phe(4-CONH2) = NC(=O)c1ccc(C[C@H](N)C(=O)O)cc1; 2Nal = N[C@@H](Cc1ccc2ccccc2c1)C(=O)O; AEF = NCCOc1ccc(C[C@H](N)C(=O)O)cc1; Pen = CC(C)(S)[C@H](N)C(=O)O; αMeV = CC(C)[C@](C)(N)C(=O)O; Aib = CC(C)(N)C(=O)O

For experiment [1], the target named is T1, IL-23R on DB cells (human, UniProt Q5VWK5 24-629).
T1 sequence (looked up): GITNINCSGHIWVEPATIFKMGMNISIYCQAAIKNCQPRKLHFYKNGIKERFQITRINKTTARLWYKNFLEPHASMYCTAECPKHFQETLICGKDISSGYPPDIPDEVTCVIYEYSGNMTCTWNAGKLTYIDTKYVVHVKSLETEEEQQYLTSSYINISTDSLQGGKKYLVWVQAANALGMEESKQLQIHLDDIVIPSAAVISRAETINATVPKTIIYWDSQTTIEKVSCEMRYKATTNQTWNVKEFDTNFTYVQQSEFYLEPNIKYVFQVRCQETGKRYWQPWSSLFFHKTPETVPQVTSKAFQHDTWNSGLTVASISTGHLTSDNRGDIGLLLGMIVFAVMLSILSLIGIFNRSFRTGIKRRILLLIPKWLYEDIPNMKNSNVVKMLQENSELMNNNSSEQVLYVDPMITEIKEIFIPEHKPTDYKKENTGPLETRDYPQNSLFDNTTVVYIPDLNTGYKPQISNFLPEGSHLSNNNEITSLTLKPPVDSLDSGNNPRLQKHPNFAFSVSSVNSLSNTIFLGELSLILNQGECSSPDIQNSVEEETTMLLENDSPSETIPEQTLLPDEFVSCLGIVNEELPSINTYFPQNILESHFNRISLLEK
Nature of the experiment: cell-based or functional assay.

In experiment [2] the target is T2, IL23R_huFC (human, UniProt Q5VWK5 24-353).
T2 sequence (looked up): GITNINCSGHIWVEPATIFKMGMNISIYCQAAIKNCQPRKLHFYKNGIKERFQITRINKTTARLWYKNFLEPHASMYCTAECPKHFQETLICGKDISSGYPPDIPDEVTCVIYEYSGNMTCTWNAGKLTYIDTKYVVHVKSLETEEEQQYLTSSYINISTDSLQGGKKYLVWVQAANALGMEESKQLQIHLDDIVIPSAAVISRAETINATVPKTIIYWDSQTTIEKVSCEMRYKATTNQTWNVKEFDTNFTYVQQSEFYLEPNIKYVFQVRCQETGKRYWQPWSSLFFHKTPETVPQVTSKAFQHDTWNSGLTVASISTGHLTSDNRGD
The experiment is described as follows: IL23-IL23R competitive ELISA.

Consider Ac-[Pen]QTWQ[Pen][Phe(4-CONH2)][Phe(3,4-(OMe)2)][αMeV]K(Ac)NN-NH2 (disulfide 1-6 (inferred)) [Ac-[Pen]-QTWQ[Pen]-[Phe(4-CONH2)]-[Phe(3,4-OMe2)]-[α-MeVal]-[Lys(Ac)]-NN-NH2], for which the “pStat3 HTRF IC50” value in experiment [1] lay within 10 to 25 nM.
What is called IC50 is the concentration needed to halve the response being measured. Higher therefore signals a need for much substance. Turning to H-CADWMCYWHEYG-NH2 (disulfide 1-6 (inferred)) [Hy-CADWMCYWHEYG-NH2], the IC50 in experiment [2] was in the range of 500 to 1000 nM.
Turning to XNTWQXFXXKNA (Ac; Pen-Pen disulfide; Phe(4-OMe); 2-Nal; Aib; Lys(Ac); NH2) [Ac-[Pen]-NTWQ-[Pen]-[Phe(4-OMe)]-[2-Nal]-[Aib]-[Lys(Ac)]-NA-NH2], the “pStat3 HTRF IC50” value in experiment [1] is below 10 nM.
Same read-out and setting: the result for XNTWQXFXXKNQ (Ac; Pen-Pen disulfide; Phe[4-(2-aminoethoxy)]; 2-Nal; Aib; Lys(Ac); NH2) [Ac-[Pen]-NTWQ-[Pen]-[Phe[4-(2-aminoethoxy)]-[2-Nal]-[Aib]-[Lys(Ac)]-NQ-NH2] reads below 10 nM; that for XNTWQXFXXKNA (Ac; Pen-Pen disulfide; Phe[4-(2-aminoethoxy)]; 2-Nal; Aib; Lys(Ac); βAla; NH2) [Ac-[Pen]-NTWQ-[Pen]-[Phe[4-(2-aminoethoxy)]-[2-Nal]-[Aib]-[Lys(Ac)]-N-[βAla]-NH2], below 10 nM.

B1: Ac-(D)Asp-[Pen]-QTWQ-[Pen]-[Phe[4-(2-aminoethoxy)]-[2-Nal]-[Aib]-[Lys(Ac)]-NN-NH2 (peptide)
peptide: Ac-[dD][Pen]QTWQ[Pen][AEF][2Nal][Aib]K(Ac)NN-NH2
modifications: disulfide 2-7
SMILES: CC(=O)NCCCC[C@H](NC(=O)C(C)(C)NC(=O)[C@H](Cc1ccc2ccccc2c1)NC(=O)[C@H](Cc1ccc(OCCN)cc1)NC(=O)[C@H]1NC(=O)[C@H](CCC(N)=O)NC(=O)[C@H](Cc2c[nH]c3ccccc23)NC(=O)[C@H]([C@@H](C)O)NC(=O)[C@H](CCC(N)=O)NC(=O)[C@@H](NC(=O)[C@@H](CC(=O)O)NC(C)=O)C(C)(C)SSC1(C)C)C(=O)N[C@@H](CC(N)=O)C(=O)N[C@@H](CC(N)=O)C(N)=O
With B1, the “pStat3 HTRF IC50” value in experiment [1] was below 10 nM.
Consider XNTWQXFXXKNN (Ac; Pen-Pen disulfide; Phe[4-(2-aminoethoxy)]; 2-Nal; Aib; Lys(Ac); NH2) [Ac-[Pen]-NTWQ-[Pen]-[Phe[4-(2-aminoethoxy)]-[2-Nal]-[Aib]-[Lys(Ac)]-NN-NH2], for which the “pStat3 HTRF IC50” value in experiment [1] is below 10 nM.
On the same count and under the same terms, the same measure for XXQTWQXFXXKNN (Ac; 2-Nal twice; Pen-Pen disulfide; Phe[4-(2-aminoethoxy)]; Aib; Lys(Ac); NH2) [Ac-[2-Nal]-[Pen]-QTWQ-[Pen]-[Phe[4-(2-aminoethoxy)]-[2-Nal]-[Aib]-[Lys(Ac)]-NN-NH2]: below 10 nM.
On the same count and under the same terms, the result for Ac-[Pen]TTWQ[Pen][AEF][2Nal][Aib]K(Ac)NQ-NH2 (disulfide 1-6 (inferred)) [Ac-[Pen]-TTWQ-[Pen]-[Phe[4-(2-aminoethoxy)]-[2-Nal]-[Aib]-[Lys(Ac)]-NQ-NH2] reads below 10 nM; that for XNTWQXFXXKNA (Ac; Pen-Pen disulfide; Phe(4-OMe); 2-Nal; Aib; Lys(Ac); βAla; NH2) [Ac-[Pen]-NTWQ-[Pen]-[Phe(4-OMe)]-[2-Nal]-[Aib]-[Lys(Ac)]-N-[βAla]-NH2], below 10 nM.
In experiment [2], Ac-CADWVCYWHEFG-NH2 (disulfide 1-6 (inferred)) [Ac-CADWVCYWHEFG-NH2] displayed an IC50 of 500 to 1000 nM.
On the same count and under the same terms, the same measure for H-CTDWKCYWHEFG-NH2 (disulfide 1-6 (inferred)) [Hy-CTDWKCYWHEFG-NH2]: 500 to 1000 nM.
Same read-out and setting: the result for Ac-CRDWVCYWHTFG-NH2 (disulfide 1-6 (inferred)) [Ac-CRDWVCYWHTFG-NH2] reads 500 to 1000 nM; that for H-CRTWTCYWHVYG-NH2 (disulfide 1-6 (inferred)) [Hy-CRTWTCYWHVYG-NH2], 500 to 1000 nM.
Consider XQTWQXFXXKNN (Ac; Pen-Pen disulfide; Phe(4-OMe); 2-Nal; Aib; Lys(Ac); NH2) [Ac-[Pen]-QTWQ-[Pen]-[Phe(4-OMe)]-[2-Nal]-[Aib]-[Lys(Ac)]-NN-NH2], for which the “pStat3 HTRF IC50” value in experiment [1] was below 10 nM.
Still for that read-out and setting: the same measure for XNTWQXFXLKNA (Ac; Pen-Pen disulfide; Phe(4-OMe); 2-Nal; hLeu; Lys(Ac); βAla; NH2) [Ac-[Pen]-NTWQ-[Pen]-[Phe(4-OMe)]-[2-Nal]-[hLeu]-[Lys(Ac)]-N-[βAla]-NH2]: below 10 nM.
